# Laboratory results as given in IntAct's records for PubMed 31515488.
# B1: Cytohesin-4 (Homo sapiens), Q9UIA0 (parent)
# chain: MDLCHPEPAELSSGETEELQRIKWHRKQLLEDIQKLKDEIADVFAQIDCFESAEESRMAQKEKELCIGRKKFNMDPAKGIQYFIEHKLLTPDVQDIARFLYKGEGLNKTAIGTYLGERDPINLQVLQAFVDCHEFANLNLVQALRQFLWSFRLPGEAQKIDRMMEAFATRYCLCNPGVFQSTDTCYVLSFSIIMLNTSLHNPNVRDRPPFERFVSMNRGINNGSDLPEDQLRNLFDSIKSEPFSIPEDDGNDLTHTFFNPDREGWLLKLGGRVKTWKRRWFILTDNCLYYFEFTTDKEPRGIIPLENLSVQKVDDPKKPFCLELYNPSCRGQKIKACKTDGDGRVVEGKHESYRISATSAEERDQWIESIRASITRVPFYDLVSTRKKKIASKQ
# B2: Probable RNA-binding protein EIF1AD (Homo sapiens), Q8N9N8 (parent)
# chain: MSQATKRKHVVKEVLGEHIVPSDQQQIVRVLRTPGNNLHEVETAQGQRFLVSMPSKYRKNIWIKRGDFLIVDPIEEGEKVKAEISFVLCKDHVRSLQKEGFWPEAFSEVAEKHNNRNRQTQPELPAEPQLSGEESSSEDDSDLFVNTNRRQYHESEEESEEEEAA
# B3: Prelamin-A/C (Homo sapiens), P02545 (parent)
# chain: METPSQRRATRSGAQASSTPLSPTRITRLQEKEDLQELNDRLAVYIDRVRSLETENAGLRLRITESEEVVSREVSGIKAAYEAELGDARKTLDSVAKERARLQLELSKVREEFKELKARNTKKEGDLIAAQARLKDLEALLNSKEAALSTALSEKRTLEGELHDLRGQVAKLEAALGEAKKQLQDEMLRRVDAENRLQTMKEELDFQKNIYSEELRETKRRHETRLVEIDNGKQREFESRLADALQELRAQHEDQVEQYKKELEKTYSAKLDNARQSAERNSNLVGAAHEELQQSRIRIDSLSAQLSQLQKQLAAKEAKLRDLEDSLARERDTSRRLLAEKEREMAEMRARMQQQLDEYQELLDIKLALDMEIHAYRKLLEGEEERLRLSPSPTSQRSRGRASSHSSQTQGGGSVTKKRKLESTESRSSFSQHARTSGRVAVEEVDEEGKFVRLRNKSNEDQSMGNWQIKRQNGDDPLLTYRFPPKFTLKAGQVVTIWAAGAGATHSPPTDLVWKAQNTWGCGNSLRTALINSTGEEVAMRKLVRSVTVVEDDEDEDGDDLLHHHHGSHCSSSGDPAEYNLRSRTVLCGTCGQPADKASASGSGAQVGGPISSGSSASSVTVTRSYRSVGGSGGGSFGDNLVTRSYLLGNSSPRTQSPQNCSIM
# partner: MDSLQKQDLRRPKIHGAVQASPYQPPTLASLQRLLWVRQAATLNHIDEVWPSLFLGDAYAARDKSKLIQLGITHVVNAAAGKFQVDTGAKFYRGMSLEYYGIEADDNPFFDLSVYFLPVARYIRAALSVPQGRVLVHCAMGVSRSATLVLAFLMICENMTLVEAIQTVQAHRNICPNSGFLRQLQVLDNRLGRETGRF
# B4: Trichoplein keratin filament-binding protein (Homo sapiens), Q9BT92 (parent)
# chain: MALPTLPSYWCSQQRLNQQLARQREQEARLRQQWEQNSRYFRMSDICSSKQAEWSSKTSYQRSMHAYQREKMKEEKRRSLEARREKLRQLMQEEQDLLARELEELRLSMNLQERRIREQHGKLKSAKEEQRKLIAEQLLYEHWKKNNPKLREMELDLHQKHVVNSWEMQKEEKKQQEATAEQENKRYENEYERARREALERMKAEEERRQLEDKLQAEALLQQMEELKLKEVEATKLKKEQENLLKQRWELERLEEERKQMEAFRQKAELGRFLRHQYNAQLSRRTQQIQEELEADRRILQALLEKEDESQRLHLARREQVMADVAWMKQAIEEQLQLERAREAELQMLLREEAKEMWEKREAEWARERSARDRLMSEVLTGRQQQIQEKIEQNRRAQEESLKHREQLIRNLEEVRELARREKEESEKLKSARKQELEAQVAERRLQAWEADQQEEEEEEEARRVEQLSDALLQQEAETMAEQGYRPKPYGHPKIAWN
# partner: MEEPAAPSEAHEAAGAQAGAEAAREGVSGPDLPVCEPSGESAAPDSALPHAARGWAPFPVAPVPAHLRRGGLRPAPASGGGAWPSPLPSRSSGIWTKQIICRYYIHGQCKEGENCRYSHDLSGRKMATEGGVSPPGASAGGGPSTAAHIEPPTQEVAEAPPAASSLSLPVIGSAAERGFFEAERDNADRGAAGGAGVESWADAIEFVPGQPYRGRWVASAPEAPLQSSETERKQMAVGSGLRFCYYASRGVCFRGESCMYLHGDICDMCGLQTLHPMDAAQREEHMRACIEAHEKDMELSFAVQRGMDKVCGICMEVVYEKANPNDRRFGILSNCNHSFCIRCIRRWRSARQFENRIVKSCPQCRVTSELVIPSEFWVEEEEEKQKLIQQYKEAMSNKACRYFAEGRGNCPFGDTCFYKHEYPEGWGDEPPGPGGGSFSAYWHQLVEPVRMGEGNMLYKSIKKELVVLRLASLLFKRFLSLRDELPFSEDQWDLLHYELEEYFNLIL
# B5: Cyclin-D1-binding protein 1 (Homo sapiens), O95273 (parent)
# chain: MASATAPAAAVPTLASPLEQLRHLAEELRLLLPRVRVGEAQETTEEFNREMFWRRLNEAAVTVSREATTLTIVFSQLPLPSPQETQKFCEQVHAAIKAFIAVYYLLPKDQGITLRKLVRGATLDIVDGMAQLMEVLSVTPTQSPENNDLISYNSVWVACQQMPQIPRDNKAAALLMLTKNVDFVKDAHEEMEQAVEECDPYSGLLNDTEENNSDNHNHEDDVLGFPSNQDLYWSEDDQELIIPCLALVRASKACLKKIRMLVAENGKKDQVAQLDDIVDISDEISPSVDDLALSIYPPMCHLTVRINSAKLVSVLKKALEITKASHVTPQPEDSWIPLLINAIDHCMNRIKELTQSELEL
# partner: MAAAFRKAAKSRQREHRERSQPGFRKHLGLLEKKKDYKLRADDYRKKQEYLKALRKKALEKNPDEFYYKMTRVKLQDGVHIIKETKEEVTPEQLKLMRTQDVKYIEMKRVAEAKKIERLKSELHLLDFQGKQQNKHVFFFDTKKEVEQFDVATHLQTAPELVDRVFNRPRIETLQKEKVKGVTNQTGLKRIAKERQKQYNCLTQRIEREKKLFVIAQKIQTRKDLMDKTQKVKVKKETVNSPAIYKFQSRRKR
# B6: Alpha-taxilin (Homo sapiens), P40222 (parent)
# chain: MKNQDKKNGAAKQSNPKSSPGQPEAGPEGAQERPSQAAPAVEAEGPGSSQAPRKPEGAQARTAQSGALRDVSEELSRQLEDILSTYCVDNNQGGPGEDGAQGEPAEPEDAEKSRTYVARNGEPEPTPVVNGEKEPSKGDPNTEEIRQSDEVGDRDHRRPQEKKKAKGLGKEITLLMQTLNTLSTPEEKLAALCKKYAELLEEHRNSQKQMKLLQKKQSQLVQEKDHLRGEHSKAVLARSKLESLCRELQRHNRSLKEEGVQRAREEEEKRKEVTSHFQVTLNDIQLQMEQHNERNSKLRQENMELAERLKKLIEQYELREEHIDKVFKHKDLQQQLVDAKLQQAQEMLKEAEERHQREKDFLLKEAVESQRMCELMKQQETHLKQQLALYTEKFEEFQNTLSKSSEVFTTFKQEMEKMTKKIKKLEKETTMYRSRWESSNKALLEMAEEKTVRDKELEGLQVKIQRLEKLCRALQTERNDLNKRVQDLSAGGQGSLTDSGPERRPEGPGAQAPSSPRVTEAPCYPGAPSTEASGQTGPQEPTSARA
# partner: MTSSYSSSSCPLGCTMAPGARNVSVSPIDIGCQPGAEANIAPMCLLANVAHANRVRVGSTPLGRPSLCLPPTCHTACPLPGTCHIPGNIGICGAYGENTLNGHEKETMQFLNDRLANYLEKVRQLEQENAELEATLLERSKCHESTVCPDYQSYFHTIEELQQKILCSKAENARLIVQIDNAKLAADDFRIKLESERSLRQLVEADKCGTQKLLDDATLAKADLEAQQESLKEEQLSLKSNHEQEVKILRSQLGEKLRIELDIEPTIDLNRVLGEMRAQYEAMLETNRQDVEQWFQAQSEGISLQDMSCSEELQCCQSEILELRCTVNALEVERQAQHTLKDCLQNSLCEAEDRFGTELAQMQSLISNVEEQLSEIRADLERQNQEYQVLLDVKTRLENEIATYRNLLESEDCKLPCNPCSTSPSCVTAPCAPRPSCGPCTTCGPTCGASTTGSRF
# Variants of: B1
# Conditions: with fos_human FOS
row,Variant,effect of a mutation on the interaction
1,M74V,with no effect
2,A9T,with no effect

# Variants of: B2
# Conditions: with tbcd5_human TBC1D5, Q92609
# Sequence of tbcd5_human TBC1D5, Q92609 (Q92609 whole entry): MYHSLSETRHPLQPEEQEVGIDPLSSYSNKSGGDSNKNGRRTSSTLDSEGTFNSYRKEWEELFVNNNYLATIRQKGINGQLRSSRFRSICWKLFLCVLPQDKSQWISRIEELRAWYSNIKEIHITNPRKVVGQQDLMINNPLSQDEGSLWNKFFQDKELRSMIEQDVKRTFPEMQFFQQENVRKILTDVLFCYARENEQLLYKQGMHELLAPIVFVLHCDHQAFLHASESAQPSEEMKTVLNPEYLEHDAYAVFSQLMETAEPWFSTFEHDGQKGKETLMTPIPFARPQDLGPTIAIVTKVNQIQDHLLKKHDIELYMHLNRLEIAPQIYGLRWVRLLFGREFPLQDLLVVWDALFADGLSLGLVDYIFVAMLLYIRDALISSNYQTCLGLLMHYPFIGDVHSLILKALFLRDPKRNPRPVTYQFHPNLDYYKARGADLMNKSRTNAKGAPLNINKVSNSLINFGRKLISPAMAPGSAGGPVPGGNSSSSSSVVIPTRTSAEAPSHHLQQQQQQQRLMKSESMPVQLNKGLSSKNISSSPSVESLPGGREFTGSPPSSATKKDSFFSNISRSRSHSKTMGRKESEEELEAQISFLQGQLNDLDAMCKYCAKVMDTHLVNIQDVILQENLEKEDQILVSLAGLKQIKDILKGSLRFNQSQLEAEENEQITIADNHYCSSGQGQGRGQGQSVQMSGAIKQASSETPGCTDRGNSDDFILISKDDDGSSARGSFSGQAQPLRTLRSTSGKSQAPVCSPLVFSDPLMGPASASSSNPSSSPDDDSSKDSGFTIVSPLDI
row,Variant,effect of a mutation on the interaction
1,R48C,with no effect

# Variants of: B3
# Conditions: with ds13b_human DUSP13B
row,Variant,effect of a mutation on the interaction
1,I299V,with no effect

# Variants of: B4
# Conditions: with mkrn3_human MKRN3, Q13064
row,Variant,effect of a mutation on the interaction
1,K127R,with no effect
2,E417K,with no effect

# Variants of: B5
# Conditions: with utp11_human UTP11, Q9Y3A2
row,Variant,effect of a mutation on the interaction
1,I277T,disrupting interaction strength

# Variants of: B6
# Conditions: with krt38_human KRT38, O76015
row,Variant,effect of a mutation on the interaction
1,R154G,disrupting interaction strength
2,S514R,with no effect
3,P541S,with no effect
